Experimental data from paper PMC3530167.

Biological target: HLA-DM wild type, biotinylated at a BirA site on the C-terminus of DMα (human) (UniProt P28067)
Test: SPR

Sequence of UniProt P28067 (P28067 27-261, chain 1 of 2): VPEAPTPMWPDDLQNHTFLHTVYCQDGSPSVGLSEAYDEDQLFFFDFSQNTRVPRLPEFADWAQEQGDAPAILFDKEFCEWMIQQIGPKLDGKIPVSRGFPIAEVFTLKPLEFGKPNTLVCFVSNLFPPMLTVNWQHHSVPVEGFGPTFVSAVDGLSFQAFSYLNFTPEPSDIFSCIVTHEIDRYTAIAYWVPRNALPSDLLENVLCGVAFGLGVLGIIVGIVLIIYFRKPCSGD
Sequence of UniProt P28067 (P28068 19-263, chain 2 of 2, further chain): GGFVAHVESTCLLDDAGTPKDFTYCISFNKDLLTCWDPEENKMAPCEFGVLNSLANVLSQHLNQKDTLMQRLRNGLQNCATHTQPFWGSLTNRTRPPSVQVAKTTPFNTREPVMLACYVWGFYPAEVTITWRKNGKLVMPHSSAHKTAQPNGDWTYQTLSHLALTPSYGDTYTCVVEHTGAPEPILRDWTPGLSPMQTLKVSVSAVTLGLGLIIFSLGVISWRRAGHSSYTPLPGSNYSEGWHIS

Substance: HLA-DR1 with a covalently linked, N-terminally truncated HA-like peptide (P2 to P11) (peptide-MHC)
- fold lower affinity at pH 6.5 than at pH 5.5: 3 fold
